Target: purified recombinant human insulin receptor (either with or without exon 11) (human) (UniProt P06213)
Test: SPA competition with A14Tyr[125I]-human insulin on purified recombinant human insulin receptor

Substance | Relative insulin receptor binding affinity (%) (% of the affinity of human insulin)
A14E, B25H, B26G, B27E, B28G, desB30 human insulin (from UniProt P01308 90-110; P01308 25-53) (ligand) | 22.7
A14E, B27K, desB28, desB29, desB30 human insulin (from UniProt P01308 90-110; P01308 25-51) (ligand) | 79
A8H, A14H, B16H, B25H, desB30 human insulin (from UniProt P01308 90-110; P01308 25-53) (ligand) | 27
A14E, A22K, B25H, B26G, B27G, B28G, B29R, desB30 human insulin (from UniProt P01308 90-110; P01308 25-53) (ligand) | 59.2
A8H, A14E, A22K, B25H, B29R, desB30 human insulin (from UniProt P01308 90-110; P01308 25-53) (ligand) | 67.1
A14E, B25H, B27G, B28G, desB30 human insulin (from UniProt P01308 90-110; P01308 25-53) (ligand) | 16.5
A14E, B16E, B22K, B25H, B29R, desB30 human insulin (from UniProt P01308 90-110; P01308 25-53) (ligand) | 0.59
A14E, B25H, B26E, B27E, desB30 human insulin (from UniProt P01308 90-110; P01308 25-53) (ligand) | 16.5
A14E, B16H, B25H, desB27, desB28, desB29, desB30 human insulin (from UniProt P01308 90-110; P01308 25-50) (ligand) | 1.9
A14E, A22K, B16H, B25H, B29R, desB30 human insulin (from UniProt P01308 90-110; P01308 25-53) (ligand) | 7.61
A14E, A22K, B25H, B27E, B29R, desB30 human insulin (from UniProt P01308 90-110; P01308 25-53) (ligand) | 24.6
A14E, A22K, B16E, B25H, B29R, desB30 human insulin (from UniProt P01308 90-110; P01308 25-53) (ligand) | 0.9

Results, then the substance that gave them:

Relative insulin receptor binding affinity (%) (% of the affinity of human insulin) | Substance
144 | A14E, B10E, B25H, B26G, B27G, B28G, desB30 human insulin (from UniProt P01308 90-110; P01308 25-53) (ligand)
81.1 | A8H, A14E, B22K, B25H, B29R, desB30 human insulin (from UniProt P01308 90-110; P01308 25-53) (ligand)
13.1 | A14E, A21G, B25H, desB30 human insulin (from UniProt P01308 90-110; P01308 25-53) (ligand)
24 | A8H, A14E, B16H, B25H, desB30 human insulin (from UniProt P01308 90-110; P01308 25-53) (ligand)
18.4 | A14E, B25H, B28G, desB30 human insulin (from UniProt P01308 90-110; P01308 25-53) (ligand)
14 | A14P, B25H, desB30 human insulin (from UniProt P01308 90-110; P01308 25-53) (ligand)
11 | A14K, B25H, B29R human insulin (from UniProt P01308 90-110; P01308 25-54) (ligand)
2 | A14H, B16H, B25H, desB27, desB28, desB29, desB30 Human insulin (from UniProt P01308 90-110; P01308 25-50) (ligand)
69.5 | A14E, B25H, B26G, B27G, B28K, desB30 human insulin (from UniProt P01308 90-110; P01308 25-53) (ligand)
23 | A14E, A15E, B25H, desB30 human insulin (from UniProt P01308 90-110; P01308 25-53) (ligand)
136 | A8H, A14E, B10E, B25H, B26G, B27G,B28G, desB30 human insulin (from UniProt P01308 90-110; P01308 25-53) (ligand)
4.61 | A14E, B16H, B22K, B25H, B29R, desB30 human insulin (from UniProt P01308 90-110; P01308 25-53) (ligand)
26.1 | A14E, B25H, B29R, desB30 human insulin (from UniProt P01308 90-110; P01308 25-53) (ligand)
60.7 | A14E, B22K, B25H, B26G, B27G, B28G, B29R, desB30 human insulin (from UniProt P01308 90-110; P01308 25-53) (ligand)

Source: patent US20110092419A1
